First the molecules themselves.
B1: hRSV20 (antibody, V domains shown)
VH: QVQLVESGGGLVQPGRSLRLSCAASGFTFDDYAMHWVRQAPGRGLEWVSGISWNSGIAVYADSVKGRFTISRDNAKKSLYLQINSLRAEDTALYYCVKDNYASGSYSSYYYYYGLDLWGQGTLVTVSS
VL: EIVMTQSPATLSVSPGERATLSCRASQSIISNLAWYQQKPGQAPRLLIYGVSTRATGIPARFSGSGSDTEFTLSISSLQSEDFAVYYCQQYNNWPITFGQGTRLEIK
notes: also called mAb hRSV20
B2: hRSV97 (antibody, V domains shown)
VH: EVQLVESGGTLVQPGRSLRLSCAASGFNFEEYAMHWVRQVPGKGLEWVARINWNGGIIGYADSVKGRFTISRDNAKKSLYLQMNSLRTDDSALYYCGKDVFWAVAGTGGPIDSWGQGTLVTVSS
VL: DIVMTQSPSSLSASIGDRVTISCRASRDISNYLAWYQQKSGKVPKLLIYAASTLESGVPSRFSGSGSGTDFTLTISSLQPEDVATYYCQNYNSAQMCSFGQGPSLEIK
notes: also called mAb hRSV97
B3: hRSV90 (human mAb, IgG) (antibody, V domains shown)
VH: EVQLVESGGGLVQPRRSLRLSCAASGFTFDDYTIHWVRQAPGKGLEWVSGITWNSGYIGYADSVKGRFTISRDNARNSLYLQMNSLRAEDTALYYCVRDAYVSGSDYYYYGLDVWGRGTLVTVSS
VL: EIVMTSSPATLSVSPGERVTLFCRASQSVISNLAWYQQKSGQAPRLLIYGASTRATGIPSRFSGSGSGTEFTLTISSLQSEDFAVYFCQQYNNWPLTFGGGTQVNVQ
notes: IgG1, kappa; also called mAb hRSV90
B4: hRSV139 (antibody, V domains shown)
VH: QVQLVQSGAEVKKPGASVKVSCKASGYVFSNYGISWVRQAPGQGLEWMGWISAYNGNTEFAQKFQGRITMTTDTSTNTAYLEVRGLRSDDTAVYYCSRQSGVSGVPEFQDWGQGTLVTVSS
VL: QAVVTQSPLSLPVTLGQPASISCRSSQSLVYSNGDTYLSWFQQRPGQSPRRLIYKVSNRDSGVPDRFSASGSGTDFTLKISRVEAEDVGVYYCMQGTHWPPPTFGQGTRLEIK
notes: also called mAb hRSV139
B5: hRSV61 (antibody, V domains shown)
VH: QVQLVQSGAELKKPGASVKVSCKASGYTFTNHGITWVRQAPGQGLEWMSWISGYNGNTQYAQKFQGRVTMTTDTSTRTAYMELRSLTSDDTAVYYCARDNGVVVGPPDYWGQGTLVTVSS
VL: DIQMTQSPSTLSASVGDRVTISCRASQSISSWLAWYQQKPGKPPKLLIYKASGLQTGVPSRFSGSGSGTEFTLTISSLQPDDFATYYCQYYHSLSAFGQGTKVEIK
notes: also called mAb hRSV61
B6: hRSV12 (antibody, V domains shown)
VH: QVQLVQSGAEVKKPGTSVRVSCKTSGYNFMNYGIYWVRQAPGQGLEWVGWISAYNGQTDRAQKFQGRVTMTTDISTNTGYMDLRSLRSDDTAVYFCARGPPVIAAVSLEYWGRGTLVTVSS
VL: EVVMTQSPLSLPVTLGQPASISCKSSQSLVHSNGDTYLNWFQQRPGQSPRRLIYKVSNRDSGVPDRFSGSGSGTDFTLKISRVETEDVGVYYCMQATHWPGSFGQGTKLEIK

The results in this text go back to article PMC5463187 (Nature microbiology, 2017).

The target in the first test is T1, RSV strain 18537 post-fusion F (Human respiratory syncytial virus …, UniProt P13843, strain).
T1 construct: also called RSV B 18537 (post); source: HEK293, transfected, purified from culture supernatant (HiTrap Talon crude)
The test can be described thus: ELISA. As to conditions: both partners purified. In general terms: An ELISA detects its analyte on a solid surface through an enzyme-linked reagent.
B1: the binding result was “no binding (tested: 1 μg ml^−1)”.

Consider B2, for which the binding result is recorded as “no binding (tested: 1 μg ml^−1)”.

Consider B3, for which the binding result is on record as “no binding (tested: 1 μg ml^−1)”.

B4: the binding result is recorded as “no binding (tested: 1 μg ml^−1)”.

For the molecule B5, the binding result was “no binding (tested: 1 μg ml^−1)”.

The target in a further test is T2, RSV strain A2 post-fusion F (Human respiratory syncytial virus …, UniProt P03420, strain).
T2 construct: source: HEK293, transfected, purified from culture supernatant (HiTrap Talon crude)
The test can be described thus: ELISA. As to conditions: both partners purified.
On to B1, for which the binding result is on record as “no binding (tested: 1 μg ml^−1)”.

B2: the binding result is on record as “no binding (tested: 1 μg ml^−1)”.

For B3, the binding result is “no binding (tested: 1 μg ml^−1)”.

Take B4: the binding result was “no binding (tested: 1 μg ml^−1)”.

For B5, the binding result is recorded as “no binding (tested: 1 μg ml^−1)”.

A further test concerns the target RSV strain A2 pre-fusion F, single-chain triple mutant (SC-TM) construct (respiratory syncytial virus subgroup A …). Briefly: cell-based or functional assay.
Details: not given
In the case of B1, the “plaque-reduction neutralization of RSV A2 (IC50)” value stood at 0.045 µg/mL.

As for B2, the “plaque-reduction neutralization of RSV A2 (IC50)” value stood at 0.35 µg/mL.

As for B3, the “plaque-reduction neutralization of RSV A2 (IC50)” value came to 0.004 µg/mL.

With B6, the “plaque-reduction neutralization of RSV A2 (IC50)” value was found to be 0.176 µg/mL.

For B4, the “plaque-reduction neutralization of RSV A2 (IC50)” value came out at 0.323 µg/mL.

As to B5, the “plaque-reduction neutralization of RSV A2 (IC50)” value was 0.09 µg/mL.

For another test, the target named is RSV strain 18537 B pre-fusion F (Ds-Cav1) (Human respiratory syncytial virus …, UniProt P13843, stabilised). Briefly: cell-based or functional assay.
Details: not given
Turning to B6, the “plaque-reduction neutralization of RSV 18537 B (IC50)” value worked out at 0.126 µg/mL.
